In patent publication US20180037620 one finds activity (% of clones homozygous for deletion) data, which are given here for four sequences.

Some test systems named below: TALEN ETV2 3-2 Right; TALEN ETV2 5-2 Left; TALEN ETV2 3-2 Left; TALEN ETV2 5-2 Right.
Holding throughout (test): cell_activity
Holding throughout (conditions): 79/528 porcine fibroblast clones; both TALEN pairs (5-2 and 3-2) plus HR oligo used together

Consider “CCCCTAAGGGTCCTG (double strand) [ETV2 3-2 right half-site]”, for which the activity (% of clones homozygous for deletion) with TALEN ETV2 3-2 Right was 15.
As to “CTGGCCGGAAATCCCC (double strand) [ETV2 5-2 left half-site]”, the activity (% of clones homozygous for deletion) in the data set on TALEN ETV2 5-2 Left is 15.
Consider “GATCCCAAGTCACACC (double strand) [ETV2 3-2 left half-site]”, for which the activity (% of clones homozygous for deletion) in the data set on TALEN ETV2 3-2 Left amounted to 15.
As for “GGGCTGCACCAGGCT (double strand) [ETV2 5-2 right half-site]”, the activity (% of clones homozygous for deletion) with TALEN ETV2 5-2 Right worked out at 15.
